# Results taken from the DeepSol protein solubility set.
# Test: soluble on expression in E. coli; label from the status in PepcDB or PDB records
row,Sequence,soluble on expression in E. coli
1,MLRTYTVLLLIAHAHVQSHFYYPCSARIFWKIHALINNTDGFVTREVKLGYFIGYKEHRSSAERKANAHGFHGFFFSEITHTFSEMIESLEHANTGAFDDIRTDSETHFFDLDDAERMIERDSIERTNNLLENSRKFKNVRDETHRGKTRRGETHRGETHRGETHRDETHRGETHRDETHRGETHRGETHRGETHRGETHLDETHRGETHRGDTHRGETHRGETHRDDTFRGETLRGETHLDETHRGETHRDETHRGETHRDETHRDETHRDETHRGETHRGETHRGETHRDDTFRGETFRGETHRDETHRGETHRDETHRGETHRGETHRGETHRGETHRGETHRGETHRGETHRGETHRDETFRGETHRGETHRGETHRDDTHRGETHRGETHRGETHRGETHRGETHRGETHRGETHRGETHRGETHRGETHRGETHCDDTHRGETRRAETHRGETHRGETHRDETHRDDTHRGETHRGETHRGETHRGETHRGETHRDETHRGETHRGDTHRGETHRGETHRGETHRGETHRGETHRGETHRGETHRGETHRGETHRDDTHRGETRRAETHRGETHRGETHRDETHRGETHRGETHRGETHRGETHRGETHRDETHRDDTFRGETLRGETHRDETHRGETHRDDTFRGETLRGETHRDETHRGETHRDETHRGETHRGETHRGETHRGETHRGETHRGETHRGETLRGETRCDDTQRGETRRAETHRGETLRGETHRDESHRGETHRGETHRGETHRGETHRGETHRDETHRDDTFRGETLRGETHRDETHRGETHRDDTFRGETLRGETHLDETHRGETHRDETHRGETHRGETHRGETHRDETHRGETHRGETHRGETHRGETHRAETFRGETHRAETHRGETNRGETHRGETHRGETHRGETNRGETHRGETHRGETHRGDTHRAETHRDETHRGETNRDETHRGETHRGETHRGDTNRGETHRGETFRGETHRGETHRGETHRGETHRGETHRGETHRGETHRGETHRDDTFRGETHRGETHCGETHRGETHRGETLRGETLRGETHRDETHRGETLRDETHRGETLRGETHRGETLRGETHRGETHRDDTFRGETLRGETHLDETHRGETHRDETHRGETHRGETHRGETHRGETHRGETHRGETHRGETHRDETHRDDTFRGETLRGETLRDETHRGETHRDDTFRGETHRDETHRGETLRGETHRDETHRDETHRDDTHRGETLRGETHLDETHRGETHRDETHRGETHLDETHRGETHRDETHRGETHRDETHRGETHRGETHVWKARENSGMF,not soluble
2,MSLRPPQTLSRGWGDDITWVQTYEEGLFYAQKSKKPLMVIHHLEDCQYSQALKKVFAQNEEIQEMAQNKFIMLNLMHETTDKNLSPDGQYVPRIMFVDPSLTVRADIAGRYSNRLYTYEPRDLPLLIENMKKALRLIQSELEGHHHHHH,soluble
3,LSDDRYFIFFNQPKTPEESIQLLGAQAGDTESFRVTLDRIPPQIQKLSFTATLDGAGQMSQVAPGYLRIVAGGEEVARYSFTGSEFSTERAVMLGDFYLKDVWRFAAVGQGFDGGLDALLKNFGGEVAEEEPAVPAQTQSGAAPSFAPPAFGAPAAPAPAPAPAPQPAQGFTPPPGPTPPPAPAPAPSVHAAPTIVGPLHTPPGGTVPPPGPAPYAQ,not soluble
4,MSLTPDPAIDEVTARVYQIPTDAPEADGTLSWSSTTLVLAEVAAGGRRGIGYTYGDGACAQLITGALAGSVTGHSALDVAARWQAMVRAMRNNGRPGLVSCAISAVDTALWDLKGKLLGLPVCRLLGMAHDSVPIYGSGGFTSYDDNATRAQLERWVHEWRIPRVKIKIGESWGSHERRDLDRIALARTVIGPDTELYVDANGGYRRKQAIRMAHAMAGHDVTWFEEPVSSDDLAGLREVRDQVSADVTAGEYGYDLAYFHRMLAADAVDCLQIDVTRCGGITDWLRAAAVAAAHNVDVSGHCAPNLHAHVATAVANLRHLEYFHDHHRIEQMFFDGALSPQGGVLRPDQQRPGFGLEFKQRDADRYRMREGHHHHHH,soluble
5,AGNATEVPANSTVLSFCAFAVDPAKAYKDYLASGGQPITNCVKMLCTHTGTGQAITVTPEANMDQESFGGASCCLYCRCHIDHPNPKGFCDLKGKYVQIPTTCANDPVGFTLRNTVCTVCGMWKGYGCSCDQLREPLMQSADASTFLNGFAV,soluble
6,MSLAQTPVMDVGTKSYISHQEQKMTATVEQIESWIVDVPTIRPHKLSMTTMGCQSLVIVRLTRSDGICGIGEATTIGGLSYGVESPEAISSAITHYLTPLLKGQPADNLNALTARMNGAIKGNTFAKSAIETALLDAQGKALGLPVSALLGGALQTALPVLWTLASGDTAKDIAEGEKLLAEGRHRAFKLKIGARELATDLRHTRAIVEALGDRASIRVDVNQAWDAATGAKGCRELAAMGVDLIEQPVSAHDNAALVRLSQQIETAILADEAVATAYDGYQLAQQGFTGAYALKIAKAGGPNSVLALARVAQAAGIGLYGGTMLEGTVGTVASLHAWSTLPLQWGTEMFGPLLLKDDIVSVPLTFADGQVALPQTPGLGVELDEDKLHFYTRQEGHHHHHH,soluble
7,MGSDKIHHHHHHMIHTLYRYCIAFTVVFLSACSVTPRQDASESQAGASAAATLASWNDTRTKRSIVDFVTLVTTPESRDFIPSADRIAVFDNDGTLWPEQPVRVQLVFALQRVKTVAGRHPEWKRQEPFRSILKGNLRSVAASGDAGSLRVLAAAHVGMTSEQFAALAHEWFDSASDPRFNRLYADLAYQPMLELLAYLRANGFKTYLVTGGDVEFVREVAQRMYGIPPEQVIGSTVRYRYSQTNDAISLTRLAQVDTLVDGAAKPLAIDRVIGRRPVIAFGNADGDAPMLEWTSAGDGPRLAALVHHTDAEREYQYDHASQSGKLDKGLDEAAVKGWLIVDMKDDWKTVFKPANTTAPGATGATGATVK,not soluble
8,MSAQVQDLTPIKGVTYYYPPHDAVLVFKDGAAEIPYGGLPVPLLEEDYASLDGEPSYDAVGRGVYQTLRTNPDCIHCAAYATLLRDAYPHYLAELASHAIMLDSKDVEVPYIDRKIVSLKVLSLLEPDNAGLPLEIGRAYLDRGLRLSALHMSTVSIYRAEHFLRRALELTPEDGRALRLLGEVCYLLGKYEEAASCWLDTLDLADADEAERFRVRLARISEGRLPLIAPVDYLEAIGAAFTCFHTGDYEEAVAILQDVLMDGIFCAEFPIADIHCVIGKSFVQLDMPRYAEESFRAALQLDPAHEESLACLRKVTGEELEHHHHHH,soluble
9,MGSDKIHHHHHHMSNIYDAVVVGSGPNGLAAAITLQRKGFAVLVLEAKDTIGGGLRTKELTLPGFKHDVCSAIHPMAVASPFFADIPLDKFGLRFTHAPIAAAHPFDHGGAAILSRSLKDTIALLGKDADNYKRLIEPVIESWPDIAADAMGPLRFPKHPLKMAAFGLNAIRSADCISKRFETEEAKGLWAGMAAHSIQPLTNWASAAIGLVLSAVGHLHGWPIPIGGSQAIADALGSYFISLGGTIQTNVEVTSLNQLPAARAVLFDVTPKQLLKITGDEFSGLYKKQLTNYRYGMGVFKVDWALSEPVPFTSDHCRQAGTVHLGNTFNEIALSEQETSSGKHPEKPFVLFAQQSKFDITRAPQGKHTAWAYCHVPNGSATDMTAAIENQLERFAPGFKDTILAKNTMNTVEIQAYNPNYIGGDINGGIIDIRQLYTRPAVKISPYRTPKKGIYICSSSTPPGGGVHGMCGFHAAQAVIQDLKKQYK,not soluble
10,MGSDKIHHHHHHMKKRLLLNTDDYGWDLDANAAIIDLLQSDSIHNVTLLANYCDSDVLRAISPFQDRASLGIHVCLNSGQALSGSTRSTLHDACGNFYDSKTLFQRAFFGELNYSDVLLEIKSQYYYLSDHGIDITHADSHQHIHQYPFLSGMITQALHEIGVKNIRRCRPLEVKNIRRYLIYFFYQCTKNNLNKFNSPDVLVTDFTHSGFSFSTDVQPILKKLSLSHYSTIEWMCHPAREDKAGSYLQRKKEYDFLKKCDWDILLNGTGIERSQYRYI,not soluble
11,MRPVLLLCCLFLSATAQAEDCSPQTSVGSWCELPLAALHPTQQNVGLLQVEDDQAKLAGKKPKALERYLRKKEIPVVIGPGGRFYLTDRHHLSSALWRLDPKQGVPVKVIGRLPQASDFWEKMQENHWVWLHDARGAEIPPEALPDALAGLGDDPYRALAGYAEDENAFDKDRQSYFIEFHWARYFGERMHWRPISRATLPDDLKQALRLACEPAARELPGYRQDCPHKLAAALEHHHHHH,not soluble
12,MSLTQPFQLPHFYMPYPARLNPHLDEARAHSTRWARGMGMLEGSGIWEQSDLDAHDYGLLCAYTHPDCDGPALSLITDWYVWVFFFDDHFLETFKRTQDREGGKAYLDRLPLFMPLDLSAPVPEPENPVEAGLADLWARTVPAMSADWRKRFAVSTEHLLNESLWELSNINEGRIANPVEYIEMRRKVGGAPWSAGLVEYATAEVPAAVAGSRPLRVLMETFSDGVHLRNDLFSYQREVEEEGELSNGVLVLETFFGCTTQEAAETVNDILTSRLHQFEHTALTEVPALALEKGLTPPEVAAVAAYARGLQDWQSGGHEWHLRSSRYMNEEGHHHHHH,soluble
13,GPGSMISLDAYVRYVYQYSSPTTTEHLRQTVWGPLGLCSGASASPKPISGAQPCWRDASVSHEVLYAVPPITTNVRCVGSRIDAHLTDLLEALPLSSPTVPPTTPAAATLASRFARPSRLATIGLPFCLCVKPQTEHLTPWSLLCTSSSSPTDASNPEMNRKQPSRPLVLVVDTGAAEAVLRGSDLYAPGIVTASRPFHAGERAVVAFYVERVAGTGDEAQNGSAEAPCRLVCALPTGATLSAEQFEPLDMDVDYQDKHQQVDMLAGRSTFLVCIGSGVTCMEWKTVMSRSVHGTALRMEWTPQGQPSRATLRALLGITKGTEDSNARSSTPLPQPPSSGVEEGEERAADVFFLQNYSSMVPVALLVQHLSPAALRRAWTHSDDADQGRSPVPCTILDACAAPGGKTSLLLSLLQERAEQERTAMAEAAIPLPSATVATEPFRVVCCERSRPRQEQLMSLLHRHFASHLAAPSASPSLNSTPAVDVPYVTRVLESRCVDTNKFLKRKLTEAAGSSDGSAASHTASFDAVLLDPPCTGMGLRPKLMPHVQSIASIQRSADYQRKLFDSCIRHIRGSPTSPGVIVYSTCTTTLEENEANVLHFLCTYPSVRLARARTAAQRALCGLSTVRSYGAQHDTDGSHGSTCLCSCLLRNEITEVQLAKERAAAAEGLSSTDPLLLLRFMPRPLDIYDDISEDGVGFFVAVFLCSGYTDA,not soluble
14,MIRGLRQIEPYVAGVQPAERKMIKLNTNENAYGASPKVREALANFDVDNLRKYSTLEQADLRAALANNLKVKPEQLMIANGSDDVLSIAFLAFFNNDEPVLFPDLTYGFYKVWADLYRVNYHEIPLAEDFTINTEDYLADNGGIILTNPNAPTGIYKPLNEIEKLLKANQDTVVIIDEAYISFGGQSALSLLNKYNNLVITRTFSKDAALAGLRVGYAIANEPLIAVMNAVKHSINPYSVDLLAERLATAAVEDWSYYQENAKKIQKTRAWFSEQLVKQGFDVLPSQANFVLTKPHDLATAKLFEELEARKIYVRYFPKVERIKDYLRISMGTQEEMEEVVKAIEEIRG,soluble
15,VSRSRKEEERQEQSARLLSKLRRFDDLDRNWPIKILIQGLRFPIRSEQRLTEYFGCSNSYEISLRDIMNFLITDYEKIPLDLYEVCPAYKQKQIGRKTYSAIVNHLSEQGLGSTFRCEWNMRLKKLIRFMEKGWEYIPDSFRQYEYRA,soluble
16,MSDKDFFSWRRTMLLRFQRMETAEEVYHEIELQAQQLEYDYYSLCVRHPVPFTRPKVAFYTNYPEAWVSYYQAKNFLAIDPVLNPENFSQGHLMWNDDLFSEAQPLWEAARAHGLRRGVTQYLMLPERALGFLSFSRCSAREIPILSDELQLKMQLLVRESLMALMRLNDE,soluble
17,MRPMTHVPVLYQEALDLLAVRPGGVYVDATLGGAGHARGILERGGRVIGLDQDPEAVARAKGLHLPGLTVVQGNFRHLKRHLAALGVERVDGILADLGVSSFHLDDPSRGFSYQKEGPLDMRMGLEGPTAKEVVNRLPLEALARLLRELGEEPQAYRIARAIVAAREKAPIETTTQLAEIVRKAVGFRRAGHPARKTFQALRIYVNDELNALKEFLEQAAEVLAPGGRLVVIAFHSLEDRVVKRFLRESGLKVLTKKPLVPSEKEAAQNPRARSAKLRAAEKEAP,soluble
